The target of assay [1] is T1, HLA-B*08:01 (human (endogenous in the Steinlin EBV …)).
Assay [2] addresses HLA-C*07:01 purified from the Steinlin EBV transformed homozygous cell line (human (endogenous in the Steinlin EBV …)).
Assay [3] has as its target T1, HLA-B*08:01. The source holds these as a separate data set.

Where two headings read alike, the source gives them in different places.

A word on the IC50: it is the midpoint of a concentration-inhibition curve. Take SRGTSPARM [SARS-CoV-2 nucleocapsid peptide SRGTSPARM (R203/G204)]: the IC50 (with HLA-B*08:01 [1]; in assay [2]) was over 50 µM throughout. In the case of IRSSYIRVL [peptide 3424.0028 (IRSSYIRVL, DNA replication licensing factor MCM5 289-297)], the IC50 with HLA-B*08:01 [3] was found to be 0.301 µM.

Values taken from article PMC8439434 (2021).
